Usually EC50 stands for the concentration needed to bring the measured effect to its halfway point. A low value points to a more potent agent.

Like-named read-outs stand apart in the source and are kept apart here.

What all share (assay): ELISA, antigen captured by anti-His antibody on plate, HRP anti-IgG Fc detection
A general note: In an ELISA, binding on a coated surface is turned into a signal by an enzyme label.

Experiment [1] concerns the target Human VEGF121/VEGF-A protein (human VEGF 121 isoform) with 6-His tag (human) (UniProt P15692).
For experiment [2] the target is unchanged. This is another data set of the same source.
Experiment [3] has the same target. The source holds these as a separate data set.
Experiment [4] has the same target. The source holds these as a separate data set.

Human VEGF121/VEGF-A protein (human VEGF 121 isoform) with 6-His tag (human), sequence (P15692 other isoform, or with tags, fused parts or gaps limits assumed): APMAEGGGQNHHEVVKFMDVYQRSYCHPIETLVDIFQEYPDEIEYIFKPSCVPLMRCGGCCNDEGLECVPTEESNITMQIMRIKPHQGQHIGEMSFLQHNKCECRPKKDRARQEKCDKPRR
Aflibercept (VEGFR-Fc) (Fc fusion), sequence (chain): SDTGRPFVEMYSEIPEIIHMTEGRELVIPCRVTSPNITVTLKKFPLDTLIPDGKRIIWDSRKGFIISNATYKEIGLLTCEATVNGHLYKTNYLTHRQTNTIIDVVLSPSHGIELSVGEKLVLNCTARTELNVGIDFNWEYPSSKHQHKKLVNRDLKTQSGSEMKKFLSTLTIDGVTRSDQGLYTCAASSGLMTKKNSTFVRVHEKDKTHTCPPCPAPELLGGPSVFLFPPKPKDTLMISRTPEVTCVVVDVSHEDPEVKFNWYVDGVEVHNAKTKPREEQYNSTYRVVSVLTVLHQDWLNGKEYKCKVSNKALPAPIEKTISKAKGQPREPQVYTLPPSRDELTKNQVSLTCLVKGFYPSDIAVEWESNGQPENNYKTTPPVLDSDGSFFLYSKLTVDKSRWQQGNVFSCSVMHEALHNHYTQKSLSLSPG

For Aflibercept (VEGFR-Fc) (Fc fusion), the EC50 in experiment [1] worked out at 15.3 nM; in experiment [2] it was 10.5 nM; in experiment [3], 21.4 nM; in experiment [4] it was 12.2 nM.

(Values after patent US20200325208A1.)
